T1: full length aryl hydrocarbon receptor (AHR) translated in reticulocyte lysate (pSportAHR) (UniProt P30561 1-805, limits assumed)
T1 construct: also called Ah receptor; radiolabeled AHR
T1 sequence (looked up): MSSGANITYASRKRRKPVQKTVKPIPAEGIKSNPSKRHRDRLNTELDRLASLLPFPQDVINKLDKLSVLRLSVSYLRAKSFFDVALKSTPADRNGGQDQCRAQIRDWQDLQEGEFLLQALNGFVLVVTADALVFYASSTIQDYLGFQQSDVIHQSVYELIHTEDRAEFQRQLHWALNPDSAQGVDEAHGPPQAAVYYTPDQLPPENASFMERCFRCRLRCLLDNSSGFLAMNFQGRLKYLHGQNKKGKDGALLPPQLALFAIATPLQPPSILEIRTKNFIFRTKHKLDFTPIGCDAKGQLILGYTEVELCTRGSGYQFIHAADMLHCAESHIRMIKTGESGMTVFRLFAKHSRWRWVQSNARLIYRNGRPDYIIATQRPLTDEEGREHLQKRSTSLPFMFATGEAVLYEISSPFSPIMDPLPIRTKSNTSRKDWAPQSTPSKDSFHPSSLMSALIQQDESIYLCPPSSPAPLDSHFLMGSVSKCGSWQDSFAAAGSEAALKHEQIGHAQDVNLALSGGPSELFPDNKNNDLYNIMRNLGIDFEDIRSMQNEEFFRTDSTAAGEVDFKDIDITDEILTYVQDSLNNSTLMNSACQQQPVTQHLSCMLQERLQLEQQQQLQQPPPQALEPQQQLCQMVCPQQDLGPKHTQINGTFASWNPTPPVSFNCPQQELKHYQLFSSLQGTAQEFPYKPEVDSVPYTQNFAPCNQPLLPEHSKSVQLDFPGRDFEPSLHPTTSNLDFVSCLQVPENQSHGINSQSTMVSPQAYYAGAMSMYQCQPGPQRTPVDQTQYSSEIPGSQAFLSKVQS


What was measured:
[1] = target: T1, full length aryl hydrocarbon receptor …; assay: co-immunoprecipitation of 35S-labeled AHR with T7-agarose, bands quantified with a phosphoimager
Protocol: (§1) The bacterial expression of FKBP52 and ARA9 was confirmed by SDS-PAGE followed by both Coomassie stain and western blot analysis with an anti-T7 peptide antibody (Novagen). Immunoprecipitations of complexes with either AHR- or Hsp90 were performed in MENG buffer as above, using anti-T7 agarose (Novagen). The complexes were then precipitated and analyzed by SDS-PAGE and autoradiography.
(§2) Figure 3A: FIG. 3A (Top). AHR was translated in reticulocyte lysates in the presence of ^35S-methionine. Labeled proteins were then incubated in the presence of T7 tagged ARA9, T7 tagged FKBP52 or untransformed BL21 extract and complexes were separated and visualized as above. "Input" lanes represent 25% of total protein (AHR or Hsp90) used in experiments. Bottom: The bands radioactivity present in the AHR or Hsp90 bands was quantified using a phosphoimager to make comparisons of relative coimmunoprecipitation. The bars represent the means from three independent experiments. The error bars indicate the standard error of the mean. Figure 3B: FIG. 3B. Hsp90 was used in a similar experiment described in FIG. 3A.
(§3) Specificity of ARA9 for AHR: The structural similarity between ARA9 and FKBP52 led us to compare the relative capacity of these two factors to bind AHR. […] The AHR-ARA9 or AHR-FKBP52 associations were determined by coimmunoprecipitation with T7-agarose. […]

Hsp90 = target: T2, Hsp90; assay: co-immunoprecipitation of 35S labeled Hsp90 with T7-agarose, bands quantified with a phosphoimager
T2 construct: also called radiolabeled Hsp90; 35S labeled Hsp90
Protocol: as §1, §2, §3

Row | efficiency at precipitating AHR relative to FKBP52 [1] [times] | capacity to interact with Hsp90 relative to ARA9 (Hsp90) [fold] | Binder
1 | ~4 |  | T7 tagged full length ARA9 expressed in bacteria (pET17b-ARA9, PL799) (other, Expressed in BL21(DE3); also called T7-tagged ARA9; FL) MASMTGGQQMGMADIIARLREDGIQKRVIQEGRGELPDFQDGTKATFHYRTLHSDDEGTVLDDSRARGKPMELIIGKKFKLPVWETIVCTMREGEIAQFLCDIKHVVLYPLVAKSLRNIAVGKDPLEGQRHCCGVAQMREHSSLGHADLDALQQNPQPLIFHMEMLKVESPGTYQQDPWAMTDEEKAKAVPLIHQEGNRLYREGHVKEAAAKYYDAIACLKNLQMKEQPGSPEWIQLDQQITPLLLNYCQCKLVVEEYYEVLDHCSSILNKYDDNVKAYFKRGKAHAAVWNAQEAQADFAKVLELDPALAPVVSRELRALEARIRQKDEEDKARFRGIFSH
2 |  | 4 | T7 tagged FKBP52 expressed in bacteria (pET17b-FKBP52, PL947) (other) MASMTGGQQMGMTAEEMKAAESGAQSAPLPLEGVDISPKQDEGVLKVIKREGTGTETPMIGDRVFVHYTGWLLDGTKFDSSLDRKDKFSFDLGKGEVIKAWDIAVATMKVGELCRITCKPEYAYGSAGSPPKIPPNATLVFEVELFEFKGEDLTDDEDGGIIRRIRTRGEGYARPNDGAIVEVALEGYYKDRLFDQRELRFEVGEGESLDLPCGLEKAIQRMEKGEHSILYLKPSYAFGNAGKEKFQIPPYAELKYEVHLKSFEKAKESWEMSSEEKLEQSAIVKERGTVYFKEGKYKQALLQYKKIVSWLEYESSFSSEEVQKAQALRLASHLNLAMCHLKLQAFSAAVESCNKALELDSNNEKGLFRRGEAHLAVNDFDLARADFQKVLQLYPSNKAAKAQLAVCQQRIRKQIAREKKLYANMFERLAEEENKAKAEVAAGDHPMDTEMKDERNDVAGSQSQVETEA

Source: patent publication US6432692 (WISCONSIN ALUMNI RESEARCH FOUNDATION, dated 2002)
